Test: Serum insulin concentration vs. time in diabetic rat after administration of insulin by the microdevice with occlusive layer
Format: in vivo
Excerpt: The serum concentration reached 110±5.37 μIU/ml and stayed relatively constant at this level when the occlusive layer was applied.

With “Novolin R®: Novolin R insulin administered to a diabetic rat by the present microdevice” as the substance, how does the “Serum insulin concentration after removal of the occlusive layer” value (after removal of the occlusive layer) read?
The value was “rapidly dropped”.

And the Serum insulin concentration (microdevice administration, occlusive layer applied, level reached and stayed relatively constant)?
The Serum insulin concentration was 110±5.37 μIU/ml.

From patent US10525246B2, “Microdevice and method for transdermal delivery and sampling of active substances” (NANOMED SKINCARE, INC., priority 2006, dated 2020)
